Results as given in patent US5356875A, “Anti-thrombin polypeptides and pharmaceutical compositions thereof” (Farmitalia Carlo ERBA S.r.l., priority 1991, dated 1994).
One block for each molecule: values may come before it.

What was measured:
[1] = cited from earlier work
thrombin [2] = target: T1, thrombin (Homo sapiens, UniProt P00734); assay: chromogenic assay: inhibition of thrombin cleavage of synthetic substrate S-2238; assay type: biochemical
thrombin [3] = target: T1, thrombin; assay: anti-thrombin activity of P2 released from fusion protein (test not specified); assay type: biochemical; details: P2 released by CNBr cleavage of polyhedrin fusion protein from S. frugiperda cytoplasm
Description: The recombinant baculovirus was obtained as described in Example 5. Infection of S. frugiperda cells was carried out according to standard procedures^20. Cultivation of infected insect cells lead to the cytoplasmic accumulation of the fusion protein. This hybrid protein was the source of recombinant protein P2. Several methods are available from the literature which can be used to cleave the hybrid with CNBr^22,23.The application of the method of Olson et al^23, has allowed us to obtain the correct polypeptidic sequence of P2.

Molecule: hirudin
efficacy in preventing venous thrombosis, vascular shunt occlusion and thrombin-induced disseminated intravascular coagulation ([1]; animal studies): demonstrated efficacy | antigenicity ([1]; in vivo): little or no antigenicity | clearance time from circulation ([1]; in vivo): very short clearance time | toxicity ([1]; in vivo): low toxicity

activity of P2 (thrombin [2]; E. coli type B strains with plasmid pOMP-P2 (Plpp/lac promoter)): active | anti-thrombin activity (thrombin [2]; culture supernatants of S. frugiperda cells infected with recombinant baculovirus, spinner culture or monolayers): presence of an anti-thrombin activity | anti-thrombin activity (thrombin [2]; periplasmic fraction of E. coli type B NCTC 10537 transformed with pFC-P2): presence of anti-thrombin activity | anti-thrombin activity (thrombin [3]): displayed anti-thrombin activity
B1: P2: 64-residue anti-thrombin polypeptide from Hirudinaria manillensis, HPLC peak P2, sequence (ii); also produced recombinantly in E. coli and insect cells (protein)
chain: VSYTDCTESGQNYCLCVGSNVCGEGKNCQLSSSGNQCVHGEGTPKPKSQTEGDFEEIPDEDILN
